Data taken from paper PMC2974754 (The Plant journal : for cell and molecular biology, 2010).
Entries after “also recorded” stand apart in the source; their conditions may differ. Residues, ends and D or L forms follow the SMILES beside them. No end group written: not given here.

Legend:
[1] = target: BAM2-GFP (transient expression in N. benthamiana) (Arabidopsis thaliana) (UniProt Q9M2Z1); experiment: radioligand binding
[2] = target: BAM1-GFP (transient expression in N. benthamiana) (Arabidopsis thaliana) (UniProt O49545); experiment: radioligand binding
BAM1-GFP (transient expression in N. benthamiana) (Arabidopsis thaliana), sequence (O49545 20-1003): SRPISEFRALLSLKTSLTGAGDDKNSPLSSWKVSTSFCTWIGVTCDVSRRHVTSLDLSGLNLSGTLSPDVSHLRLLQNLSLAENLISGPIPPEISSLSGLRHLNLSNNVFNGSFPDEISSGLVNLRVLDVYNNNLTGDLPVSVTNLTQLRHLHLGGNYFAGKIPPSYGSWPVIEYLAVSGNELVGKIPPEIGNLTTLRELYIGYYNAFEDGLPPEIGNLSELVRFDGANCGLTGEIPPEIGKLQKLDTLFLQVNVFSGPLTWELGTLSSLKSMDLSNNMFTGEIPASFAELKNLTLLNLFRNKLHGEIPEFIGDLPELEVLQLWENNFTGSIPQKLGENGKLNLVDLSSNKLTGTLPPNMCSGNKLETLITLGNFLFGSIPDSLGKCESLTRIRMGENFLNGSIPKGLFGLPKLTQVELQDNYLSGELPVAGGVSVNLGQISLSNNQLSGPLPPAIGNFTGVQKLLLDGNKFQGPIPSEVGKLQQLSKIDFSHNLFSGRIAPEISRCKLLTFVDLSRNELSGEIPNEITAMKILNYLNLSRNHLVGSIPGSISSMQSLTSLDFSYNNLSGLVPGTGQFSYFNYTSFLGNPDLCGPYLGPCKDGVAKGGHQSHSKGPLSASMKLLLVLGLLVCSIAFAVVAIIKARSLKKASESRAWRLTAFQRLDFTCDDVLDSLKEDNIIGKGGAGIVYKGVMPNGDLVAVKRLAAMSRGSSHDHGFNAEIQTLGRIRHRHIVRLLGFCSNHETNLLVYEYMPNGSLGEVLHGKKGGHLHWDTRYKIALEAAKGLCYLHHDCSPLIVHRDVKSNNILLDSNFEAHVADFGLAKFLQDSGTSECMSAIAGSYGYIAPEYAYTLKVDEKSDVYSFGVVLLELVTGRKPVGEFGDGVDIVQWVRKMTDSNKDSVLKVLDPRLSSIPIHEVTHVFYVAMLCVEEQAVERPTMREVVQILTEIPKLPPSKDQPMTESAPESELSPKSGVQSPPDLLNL

[3] = target: CLV2-MYC (transient expression in N. benthamiana) (Arabidopsis thaliana) (UniProt O80809); experiment: radioligand binding
[4] = target: CLV1-GFP (transient expression in N. benthamiana) (Arabidopsis thaliana) (UniProt Q9SYQ8); experiment: radioligand binding
[5] = stated in peptide description, no test or reference named; cited from earlier work
CLV1 [6] = details: truncated CLV1 LRR domain expressed in tobacco BY-2 cells; ref Ogawa et al. 2008; cited from earlier work
CLV1 [7] = details: cold competitor to radiolabeled CLV3 CLE; ref Kondo et al. 2008, Ogawa et al. 2008; cited from earlier work
Arabidopsis plants = details: synthetic peptides treating Arabidopsis plants; ref Kinoshita et al. 2007; cited from earlier work
[8] = target: T1, CRN-GFP (transient expression in N. benthamiana) (Arabidopsis thaliana, UniProt Q9LYU7 34-401); experiment: co-IP
T1 sequence (looked up): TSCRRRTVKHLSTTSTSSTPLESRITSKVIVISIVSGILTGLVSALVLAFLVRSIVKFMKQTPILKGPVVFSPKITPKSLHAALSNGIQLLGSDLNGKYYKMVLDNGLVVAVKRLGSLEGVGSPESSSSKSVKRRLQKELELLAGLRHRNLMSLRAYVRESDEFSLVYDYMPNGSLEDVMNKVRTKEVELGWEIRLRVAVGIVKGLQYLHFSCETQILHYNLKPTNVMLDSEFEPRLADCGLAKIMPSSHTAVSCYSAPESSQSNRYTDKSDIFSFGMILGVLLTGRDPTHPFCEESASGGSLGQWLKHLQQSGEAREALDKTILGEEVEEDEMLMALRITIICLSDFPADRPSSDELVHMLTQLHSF

[9] = target: T2, CLV1-FLAG (transient expression in N. benthamiana) (Arabidopsis thaliana, UniProt Q9SYQ8 25-980); experiment: co-IP
T2 sequence (looked up): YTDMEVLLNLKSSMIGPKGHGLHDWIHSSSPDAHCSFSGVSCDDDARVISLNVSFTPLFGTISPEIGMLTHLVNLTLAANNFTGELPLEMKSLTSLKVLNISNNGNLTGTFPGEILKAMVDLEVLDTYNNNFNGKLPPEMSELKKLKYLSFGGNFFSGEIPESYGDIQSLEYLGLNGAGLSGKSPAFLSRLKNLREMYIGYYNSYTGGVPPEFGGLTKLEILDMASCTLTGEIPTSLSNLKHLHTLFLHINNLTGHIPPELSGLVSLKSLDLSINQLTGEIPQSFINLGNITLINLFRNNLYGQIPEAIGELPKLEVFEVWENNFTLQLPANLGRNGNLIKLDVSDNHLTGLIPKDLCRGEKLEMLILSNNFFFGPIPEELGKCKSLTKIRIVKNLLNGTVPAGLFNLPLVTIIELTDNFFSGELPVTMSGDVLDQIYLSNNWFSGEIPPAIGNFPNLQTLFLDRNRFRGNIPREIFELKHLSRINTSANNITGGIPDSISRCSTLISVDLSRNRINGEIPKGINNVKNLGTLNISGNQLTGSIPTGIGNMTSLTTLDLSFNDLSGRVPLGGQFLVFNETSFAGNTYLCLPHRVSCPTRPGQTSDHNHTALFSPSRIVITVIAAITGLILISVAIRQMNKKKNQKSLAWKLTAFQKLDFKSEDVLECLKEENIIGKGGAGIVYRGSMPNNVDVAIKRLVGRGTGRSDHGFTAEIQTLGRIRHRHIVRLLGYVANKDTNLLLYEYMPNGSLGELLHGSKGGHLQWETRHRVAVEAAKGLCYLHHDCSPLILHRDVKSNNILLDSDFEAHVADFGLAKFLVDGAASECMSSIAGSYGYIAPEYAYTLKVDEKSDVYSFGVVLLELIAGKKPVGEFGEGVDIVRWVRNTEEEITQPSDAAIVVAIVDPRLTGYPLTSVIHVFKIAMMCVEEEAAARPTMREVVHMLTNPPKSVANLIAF

[10] = target: T3, CLV1-GFP (transient expression in N. benthamiana) (Arabidopsis thaliana, UniProt Q9SYQ8 25-980); experiment: co-IP
T3 sequence (looked up): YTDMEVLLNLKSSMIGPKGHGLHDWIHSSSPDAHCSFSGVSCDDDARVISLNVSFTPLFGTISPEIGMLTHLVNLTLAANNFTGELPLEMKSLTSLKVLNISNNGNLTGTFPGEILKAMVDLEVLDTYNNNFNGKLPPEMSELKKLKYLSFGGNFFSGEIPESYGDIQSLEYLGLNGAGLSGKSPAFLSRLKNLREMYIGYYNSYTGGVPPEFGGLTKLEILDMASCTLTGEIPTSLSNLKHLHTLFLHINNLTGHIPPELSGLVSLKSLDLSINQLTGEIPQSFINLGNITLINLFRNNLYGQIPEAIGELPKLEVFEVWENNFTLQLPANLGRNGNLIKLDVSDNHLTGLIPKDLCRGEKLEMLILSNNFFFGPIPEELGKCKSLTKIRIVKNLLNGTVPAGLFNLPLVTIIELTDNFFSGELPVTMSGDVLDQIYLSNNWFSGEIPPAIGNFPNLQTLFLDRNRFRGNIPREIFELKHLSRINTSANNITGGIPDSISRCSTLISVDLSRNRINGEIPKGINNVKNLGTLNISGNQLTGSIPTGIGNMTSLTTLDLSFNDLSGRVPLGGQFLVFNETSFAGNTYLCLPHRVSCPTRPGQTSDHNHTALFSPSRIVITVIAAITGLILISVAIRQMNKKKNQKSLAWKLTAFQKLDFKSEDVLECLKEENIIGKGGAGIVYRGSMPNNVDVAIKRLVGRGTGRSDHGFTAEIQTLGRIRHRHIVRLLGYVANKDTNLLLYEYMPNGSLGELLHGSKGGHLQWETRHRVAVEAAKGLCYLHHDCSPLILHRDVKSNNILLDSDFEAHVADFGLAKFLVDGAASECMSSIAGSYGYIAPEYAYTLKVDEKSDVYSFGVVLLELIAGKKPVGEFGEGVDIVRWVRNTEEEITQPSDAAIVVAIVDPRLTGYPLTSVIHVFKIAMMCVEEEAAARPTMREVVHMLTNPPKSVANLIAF

125I-radiolabeled CLV3 CLE peptide
Kd [1]: 36 nM | Kd [2]: 26 nM | Kd [3]: 32 nM | Kd [4]: 30 nM

CLV3L: CLV3L (Arg70-Pro96) which includes the full CLV3 CLE domain plus the extended C-terminal tail and is partially functional (RTVPSGPDPLHHHVNPPRQPRNNFQLP; ends and bridges not checked; UniProt Q9XF04 70-96, looked up, fragment)
functionality of the peptide [5]: partially functional

CC(C)C[C@H](NC(=O)[C@@H]1CCCN1C(=O)[C@H](CC(=O)O)NC(=O)[C@@H]1CCCN1C(=O)CNC(=O)[C@H](CO)NC(=O)[C@@H]1CCCN1C(=O)[C@@H](NC(=O)[C@@H](NC(=O)[C@@H](N)CCCNC(=N)N)[C@@H](C)O)C(C)C)C(=O)N[C@@H](Cc1c[nH]cn1)C(=O)N[C@@H](Cc1c[nH]cn1)C(=O)O [CLV3 CLE] (H-RTVPSGPDPLHH-OH)
binding to CLV1 (LRR / extracellular domain) (CLV1 [6]): bind to the truncated CLV1 LRR domain; also recorded: binds to the CLV3 CLE peptide through its extracellular domain

CLV3S: CLV3S (Thr71-His81) which only contains a portion of the CLE domain and is nonfunctional (TVPSGPDPLHH; ends and bridges not checked)
functionality of the peptide [5]: nonfunctional | competition of CLV3S at CLV1, previously reported (CLV1 [7]): unable to compete

CLE25: CLE peptide (RKVPNGPDPIHN; ends and bridges not checked; UniProt Q8LFL4 58-69, looked up)
effect on size of the SAM (Arabidopsis plants): caused reduced size of the SAM

B1: CLV2-MYC (transient expression in N. benthamiana) (receptor, Arabidopsis thaliana, UniProt O80809 26-720, looked up)
chain: QLPDLDPQDKASLLIFRVSIHDLNRSLSTWYGSSCSNWTGLACQNPTGKVLSLTLSGLNLSSQIHPSLCKLSSLQSLDLSHNNFSGNIPSCFGSLRNLRTLNLSRNRFVGSIPATFVSLKELREVVLSENRDLGGVVPHWFGNFSMNLERVDFSFCSFVGELPESLLYLKSLKYLNLESNNMTGTLRDFQQPLVVLNLASNQFSGTLPCFYASRPSLSILNIAENSLVGGLPSCLGSLKELSHLNLSFNGFNYEISPRLMFSEKLVMLDLSHNGFSGRLPSRISETTEKLGLVLLDLSHNSFSGDIPLRITELKSLQALRLSHNLLTGDIPARIGNLTYLQVIDLSHNALTGSIPLNIVGCFQLLALMISNNNLSGEIQPELDALDSLKILDISNNHISGEIPLTLAGLKSLEIVDISSNNLSGNLNEAITKWSNLKYLSLARNKFSGTLPSWLFKFDKIQMIDYSSNRFSWFIPDDNLNSTRFKDFQTGGGEGFAEPPGKVEIKISAAVVAKDELSFSYNLLSMVGIDLSDNLLHGEIPEALFRQKNIEYLNLSYNFLEGQLPRLEKLPRLKALDLSHNSLSGQVIGNISAPPGLTLLNLSHNCFSGIITEKEGLGKFPGALAGNPELCVETPGSKCDPANIDASQEEIYQNELVEGPISIWIFCLSAFISFDFGVLGIFCSARARSYILQTKA
percent co-immunoprecipitated [8]: ~20% | percent co-immunoprecipitated [9]: 2.5%

B2: BAM2-FLAG (transient expression in N. benthamiana) (receptor, Arabidopsis thaliana, UniProt Q9M2Z1 23-1002, looked up)
chain: KPITELHALLSLKSSFTIDEHSPLLTSWNLSTTFCSWTGVTCDVSLRHVTSLDLSGLNLSGTLSSDVAHLPLLQNLSLAANQISGPIPPQISNLYELRHLNLSNNVFNGSFPDELSSGLVNLRVLDLYNNNLTGDLPVSLTNLTQLRHLHLGGNYFSGKIPATYGTWPVLEYLAVSGNELTGKIPPEIGNLTTLRELYIGYYNAFENGLPPEIGNLSELVRFDAANCGLTGEIPPEIGKLQKLDTLFLQVNAFTGTITQELGLISSLKSMDLSNNMFTGEIPTSFSQLKNLTLLNLFRNKLYGAIPEFIGEMPELEVLQLWENNFTGSIPQKLGENGRLVILDLSSNKLTGTLPPNMCSGNRLMTLITLGNFLFGSIPDSLGKCESLTRIRMGENFLNGSIPKELFGLPKLSQVELQDNYLTGELPISGGGVSGDLGQISLSNNQLSGSLPAAIGNLSGVQKLLLDGNKFSGSIPPEIGRLQQLSKLDFSHNLFSGRIAPEISRCKLLTFVDLSRNELSGDIPNELTGMKILNYLNLSRNHLVGSIPVTIASMQSLTSVDFSYNNLSGLVPSTGQFSYFNYTSFVGNSHLCGPYLGPCGKGTHQSHVKPLSATTKLLLVLGLLFCSMVFAIVAIIKARSLRNASEAKAWRLTAFQRLDFTCDDVLDSLKEDNIIGKGGAGIVYKGTMPKGDLVAVKRLATMSHGSSHDHGFNAEIQTLGRIRHRHIVRLLGFCSNHETNLLVYEYMPNGSLGEVLHGKKGGHLHWNTRYKIALEAAKGLCYLHHDCSPLIVHRDVKSNNILLDSNFEAHVADFGLAKFLQDSGTSECMSAIAGSYGYIAPEYAYTLKVDEKSDVYSFGVVLLELITGKKPVGEFGDGVDIVQWVRSMTDSNKDCVLKVIDLRLSSVPVHEVTHVFYVALLCVEEQAVERPTMREVVQILTEIPKIPLSKQQAAESDVTEKAPAINESSPDSGSPPDLLSN
percent co-immunoprecipitated [10]: 10%
